Test results from the supplement of paper PMC9112550, “Optimization of the antimicrobial peptide Bac7 by deep mutational scanning” (BMC Biology, 2022).

Each sequence was assayed on Escherichia coli TOP10 (assay: shrunken log2 fold change of peptide-encoding DNA abundance (4.5 h post-induction vs induction); higher = less antimicrobial activity (less host growth inhibition)). Conditions: time post-induction: 4.5 h; library: site-saturation at positions 5, 18, 19, 20.
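Note: peptides expressed intracellularly from a pBAD plasmid library in pooled LB shake-flask culture, induced with 0.3% L-arabinose, DNA abundance read by NGS, three biological replicates, DESeq2 with apeglm shrinkage.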

Which “shrunken log2 fold change” value does the source give for RRIRPRPPRLPRPRPRPDCMPRP here?
The value was 0.053.

For RRIRPRPPRLPRPRPRPFSFPRP, which “shrunken log2 fold change” value is on record?
The value was -0.0166.

With RRIRHRPPRLPRPRPRPEWQPRP as the sequence, how does the “shrunken log2 fold change” value read?
Its value is 0.145.

Which “shrunken log2 fold change” value does the source give for RRIRRRPPRLPRPRPRPCDDPRP here?
Its value is -0.0703.

Which “shrunken log2 fold change” value does the source give for RRIRKRPPRLPRPRPRPIANPRP here?
Its value is 0.339.

With RRIRMRPPRLPRPRPRPLQVPRP as the sequence, how does the “shrunken log2 fold change” value read?
The value was 0.21.

How did the “shrunken log2 fold change” value turn out when RRIRPRPPRLPRPRPRPGEDPRP was run?
Its value is 0.461.

For RRIRNRPPRLPRPRPRPVDDPRP, which “shrunken log2 fold change” value is on record?
The value was 0.0318.

RRIRQRPPRLPRPRPRPCCYPRP was tested. Which “shrunken log2 fold change” value did it give?
The value was -0.0451.

How did the “shrunken log2 fold change” value turn out when RRIRQRPPRLPRPRPRPDLRPRP was run?
Its value is -0.0102.

How did the “shrunken log2 fold change” value turn out when RRIRWRPPRLPRPRPRPPFVPRP was run?
Its value is 0.171.

How did the “shrunken log2 fold change” value turn out when RRIRYRPPRLPRPRPRPTNEPRP was run?
Its value is -0.586.

How did the “shrunken log2 fold change” value turn out when RRIRMRPPRLPRPRPRPLCPPRP was run?
The value was -0.0953.

RRIRHRPPRLPRPRPRPHSQPRP was tested. Which “shrunken log2 fold change” value did it give?
Its value is -0.224.

For RRIRFRPPRLPRPRPRPHAEPRP, which “shrunken log2 fold change” value is on record?
The value was -0.00295.

RRIRKRPPRLPRPRPRPQCMPRP was tested. Which “shrunken log2 fold change” value did it give?
The value was 0.0247.

With RRIRCRPPRLPRPRPRPIKGPRP as the sequence, how does the “shrunken log2 fold change” value read?
The value was -0.0586.

Which “shrunken log2 fold change” value does the source give for RRIRLRPPRLPRPRPRPTFSPRP here?
The value was -0.0485.

How did the “shrunken log2 fold change” value turn out when RRIRSRPPRLPRPRPRPDHYPRP was run?
Its value is -0.341.

Which “shrunken log2 fold change” value does the source give for RRIRGRPPRLPRPRPRPKDWPRP here?
Its value is 0.914.

How did the “shrunken log2 fold change” value turn out when RRIRRRPPRLPRPRPRPQPRPRP was run?
The value was 0.5.

How did the “shrunken log2 fold change” value turn out when RRIRMRPPRLPRPRPRPNLVPRP was run?
Its value is 0.288.

Which “shrunken log2 fold change” value does the source give for RRIRARPPRLPRPRPRPGAMPRP here?
Its value is 0.959.

With RRIRRRPPRLPRPRPRPRTSPRP as the sequence, how does the “shrunken log2 fold change” value read?
The value was 0.108.

For RRIRPRPPRLPRPRPRPKDKPRP, which “shrunken log2 fold change” value is on record?
The value was -0.125.

RRIRDRPPRLPRPRPRPYRDPRP was tested. Which “shrunken log2 fold change” value did it give?
The value was -0.444.

With RRIRERPPRLPRPRPRPAGLPRP as the sequence, how does the “shrunken log2 fold change” value read?
The value was -0.0519.

With RRIRARPPRLPRPRPRPFFLPRP as the sequence, how does the “shrunken log2 fold change” value read?
The value was -0.0057.

RRIRRRPPRLPRPRPRPPFGPRP was tested. Which “shrunken log2 fold change” value did it give?
The value was 0.453.

With RRIRNRPPRLPRPRPRPHEFPRP as the sequence, how does the “shrunken log2 fold change” value read?
Its value is -0.13.

With RRIRLRPPRLPRPRPRPTWVPRP as the sequence, how does the “shrunken log2 fold change” value read?
The value was 0.0425.

Which “shrunken log2 fold change” value does the source give for RRIRDRPPRLPRPRPRPQADPRP here?
The value was 0.103.

For RRIRLRPPRLPRPRPRPWNGPRP, which “shrunken log2 fold change” value is on record?
Its value is -0.217.

Which “shrunken log2 fold change” value does the source give for RRIRMRPPRLPRPRPRPVSCPRP here?
The value was 0.141.

For RRIRQRPPRLPRPRPRPIKHPRP, which “shrunken log2 fold change” value is on record?
Its value is -0.12.

For RRIRYRPPRLPRPRPRPNEGPRP, which “shrunken log2 fold change” value is on record?
The value was -0.363.

How did the “shrunken log2 fold change” value turn out when RRIRIRPPRLPRPRPRPHLFPRP was run?
The value was -0.359.

For RRIRQRPPRLPRPRPRPMFQPRP, which “shrunken log2 fold change” value is on record?
The value was -0.467.

For RRIRQRPPRLPRPRPRPENAPRP, which “shrunken log2 fold change” value is on record?
Its value is 0.242.

With RRIRPRPPRLPRPRPRPALAPRP as the sequence, how does the “shrunken log2 fold change” value read?
The value was 0.412.

With RRIRFRPPRLPRPRPRPRHIPRP as the sequence, how does the “shrunken log2 fold change” value read?
The value was -0.439.

For RRIRNRPPRLPRPRPRPIRDPRP, which “shrunken log2 fold change” value is on record?
Its value is 0.201.

RRIRNRPPRLPRPRPRPEKDPRP was tested. Which “shrunken log2 fold change” value did it give?
Its value is -0.0532.

For RRIRRRPPRLPRPRPRPVRDPRP, which “shrunken log2 fold change” value is on record?
The value was 0.718.

With RRIRERPPRLPRPRPRPGITPRP as the sequence, how does the “shrunken log2 fold change” value read?
Its value is -0.648.

With RRIRFRPPRLPRPRPRPCNCPRP as the sequence, how does the “shrunken log2 fold change” value read?
The value was -0.166.

With RRIRSRPPRLPRPRPRPWKSPRP as the sequence, how does the “shrunken log2 fold change” value read?
Its value is -0.0239.

Which “shrunken log2 fold change” value does the source give for RRIRGRPPRLPRPRPRPNNWPRP here?
The value was 0.121.

How did the “shrunken log2 fold change” value turn out when RRIRSRPPRLPRPRPRPWVSPRP was run?
Its value is -0.203.

For RRIRNRPPRLPRPRPRPDAAPRP, which “shrunken log2 fold change” value is on record?
The value was 0.45.

How did the “shrunken log2 fold change” value turn out when RRIRERPPRLPRPRPRPRFIPRP was run?
Its value is -0.414.

RRIRWRPPRLPRPRPRPQRTPRP was tested. Which “shrunken log2 fold change” value did it give?
The value was -0.0113.

RRIRERPPRLPRPRPRPEWEPRP was tested. Which “shrunken log2 fold change” value did it give?
The value was -0.0115.

Which “shrunken log2 fold change” value does the source give for RRIRSRPPRLPRPRPRPCYLPRP here?
The value was -0.586.

For RRIRERPPRLPRPRPRPCWTPRP, which “shrunken log2 fold change” value is on record?
Its value is 0.0421.

RRIRRRPPRLPRPRPRPPEVPRP was tested. Which “shrunken log2 fold change” value did it give?
The value was 0.821.

For RRIRVRPPRLPRPRPRPGINPRP, which “shrunken log2 fold change” value is on record?
Its value is -0.0188.

With RRIRVRPPRLPRPRPRPNKWPRP as the sequence, how does the “shrunken log2 fold change” value read?
Its value is -0.138.

For RRIRVRPPRLPRPRPRPMQPPRP, which “shrunken log2 fold change” value is on record?
The value was -0.0152.

For RRIRCRPPRLPRPRPRPNVAPRP, which “shrunken log2 fold change” value is on record?
Its value is 0.0221.

Which “shrunken log2 fold change” value does the source give for RRIRCRPPRLPRPRPRPFYDPRP here?
The value was -0.826.

With RRIRFRPPRLPRPRPRPLRRPRP as the sequence, how does the “shrunken log2 fold change” value read?
The value was 0.773.

For RRIRNRPPRLPRPRPRPKFDPRP, which “shrunken log2 fold change” value is on record?
Its value is -0.235.

RRIRDRPPRLPRPRPRPHHMPRP was tested. Which “shrunken log2 fold change” value did it give?
Its value is -0.128.

Which “shrunken log2 fold change” value does the source give for RRIRGRPPRLPRPRPRPSAFPRP here?
Its value is 1.1.

RRIRHRPPRLPRPRPRPVFAPRP was tested. Which “shrunken log2 fold change” value did it give?
The value was 0.12.

How did the “shrunken log2 fold change” value turn out when RRIRVRPPRLPRPRPRPDPFPRP was run?
The value was 0.0836.

How did the “shrunken log2 fold change” value turn out when RRIRNRPPRLPRPRPRPRMIPRP was run?
Its value is 0.0468.

With RRIRSRPPRLPRPRPRPYNCPRP as the sequence, how does the “shrunken log2 fold change” value read?
Its value is -0.171.

With RRIRHRPPRLPRPRPRPIVQPRP as the sequence, how does the “shrunken log2 fold change” value read?
Its value is -0.115.

Which “shrunken log2 fold change” value does the source give for RRIRTRPPRLPRPRPRPHCVPRP here?
Its value is -0.192.

How did the “shrunken log2 fold change” value turn out when RRIRIRPPRLPRPRPRPVSNPRP was run?
Its value is -0.0661.

RRIRCRPPRLPRPRPRPMKNPRP was tested. Which “shrunken log2 fold change” value did it give?
The value was -0.128.

With RRIRNRPPRLPRPRPRPGWFPRP as the sequence, how does the “shrunken log2 fold change” value read?
The value was -0.00934.

RRIRLRPPRLPRPRPRPNLPPRP was tested. Which “shrunken log2 fold change” value did it give?
The value was -0.508.

Which “shrunken log2 fold change” value does the source give for RRIRYRPPRLPRPRPRPISDPRP here?
Its value is -0.237.

Which “shrunken log2 fold change” value does the source give for RRIRVRPPRLPRPRPRPPHHPRP here?
Its value is 0.0413.

For RRIRSRPPRLPRPRPRPWLMPRP, which “shrunken log2 fold change” value is on record?
The value was -0.156.

For RRIRWRPPRLPRPRPRPEVIPRP, which “shrunken log2 fold change” value is on record?
The value was 0.0286.

For RRIRKRPPRLPRPRPRPFYSPRP, which “shrunken log2 fold change” value is on record?
Its value is 0.00762.

With RRIRRRPPRLPRPRPRPPNVPRP as the sequence, how does the “shrunken log2 fold change” value read?
Its value is 0.115.

How did the “shrunken log2 fold change” value turn out when RRIRVRPPRLPRPRPRPFMIPRP was run?
Its value is -0.256.

How did the “shrunken log2 fold change” value turn out when RRIRVRPPRLPRPRPRPAHVPRP was run?
The value was 0.0119.

For RRIRLRPPRLPRPRPRPHNSPRP, which “shrunken log2 fold change” value is on record?
Its value is -0.492.

How did the “shrunken log2 fold change” value turn out when RRIRRRPPRLPRPRPRPVCYPRP was run?
Its value is 0.103.

RRIRVRPPRLPRPRPRPQLDPRP was tested. Which “shrunken log2 fold change” value did it give?
The value was 0.269.

Which “shrunken log2 fold change” value does the source give for RRIRVRPPRLPRPRPRPGIFPRP here?
Its value is -0.0463.

Which “shrunken log2 fold change” value does the source give for RRIRRRPPRLPRPRPRPRHLPRP here?
The value was 0.197.

For RRIRTRPPRLPRPRPRPIFRPRP, which “shrunken log2 fold change” value is on record?
The value was 0.00202.

For RRIRSRPPRLPRPRPRPFHNPRP, which “shrunken log2 fold change” value is on record?
The value was -0.0339.

RRIRERPPRLPRPRPRPEQPPRP was tested. Which “shrunken log2 fold change” value did it give?
The value was -0.064.

For RRIRPRPPRLPRPRPRPGKDPRP, which “shrunken log2 fold change” value is on record?
The value was 0.0142.

RRIRRRPPRLPRPRPRPLHTPRP was tested. Which “shrunken log2 fold change” value did it give?
The value was 0.321.

RRIRYRPPRLPRPRPRPTMNPRP was tested. Which “shrunken log2 fold change” value did it give?
The value was -0.446.

For RRIRQRPPRLPRPRPRPWMPPRP, which “shrunken log2 fold change” value is on record?
Its value is -0.167.

RRIRDRPPRLPRPRPRPKNDPRP was tested. Which “shrunken log2 fold change” value did it give?
The value was -0.103.

Which “shrunken log2 fold change” value does the source give for RRIRGRPPRLPRPRPRPAPHPRP here?
The value was 0.95.

RRIRARPPRLPRPRPRPTPEPRP was tested. Which “shrunken log2 fold change” value did it give?
The value was 0.694.

For RRIRIRPPRLPRPRPRPSNDPRP, which “shrunken log2 fold change” value is on record?
Its value is -0.779.

Which “shrunken log2 fold change” value does the source give for RRIRARPPRLPRPRPRPELMPRP here?
The value was 1.19.

With RRIRRRPPRLPRPRPRPGKQPRP as the sequence, how does the “shrunken log2 fold change” value read?
The value was 0.254.

RRIRERPPRLPRPRPRPTHPPRP was tested. Which “shrunken log2 fold change” value did it give?
The value was 0.447.

Which “shrunken log2 fold change” value does the source give for RRIRARPPRLPRPRPRPIFCPRP here?
The value was 0.445.

With RRIRARPPRLPRPRPRPSVYPRP as the sequence, how does the “shrunken log2 fold change” value read?
Its value is -0.138.

How did the “shrunken log2 fold change” value turn out when RRIRPRPPRLPRPRPRPNEIPRP was run?
Its value is -0.139.

With RRIRDRPPRLPRPRPRPRTNPRP as the sequence, how does the “shrunken log2 fold change” value read?
The value was -0.179.

With RRIRRRPPRLPRPRPRPLANPRP as the sequence, how does the “shrunken log2 fold change” value read?
Its value is 0.42.

RRIRVRPPRLPRPRPRPEDWPRP was tested. Which “shrunken log2 fold change” value did it give?
Its value is 0.354.

With RRIRIRPPRLPRPRPRPPGHPRP as the sequence, how does the “shrunken log2 fold change” value read?
The value was 0.11.
